# T1: ParE1 toxin of Mycobacterium tuberculosis H37Rv (Mycobacterium tuberculosis H37Rv, UniProt P9WHG7 1-98)
# T1 construct: also called Rv1959c; not shown: 6His-SUMO, N-terminal, cleaved
# T1 sequence: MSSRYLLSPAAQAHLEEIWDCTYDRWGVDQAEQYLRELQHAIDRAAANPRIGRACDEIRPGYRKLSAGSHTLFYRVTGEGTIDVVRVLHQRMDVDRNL
# Tests used:
# [1] = target: Mycobacterium tuberculosis DNA gyrase holoenzyme GyrB2A2 (Mycobacterium tuberculosis) (UniProt P9WG47)
# [2] = target: T1, ParE1 toxin of Mycobacterium …; assay: SEC; settings: both partners purified
# [3] = target: the molecule itself; assay: crystal structure
# [4] = target: T1, ParE1 toxin of Mycobacterium …; assay: mass photometry; settings: both partners purified
# Sequence of Mycobacterium tuberculosis DNA gyrase holoenzyme GyrB2A2 (Mycobacterium tuberculosis) (P9WG47 whole entry, chain 1 of 2): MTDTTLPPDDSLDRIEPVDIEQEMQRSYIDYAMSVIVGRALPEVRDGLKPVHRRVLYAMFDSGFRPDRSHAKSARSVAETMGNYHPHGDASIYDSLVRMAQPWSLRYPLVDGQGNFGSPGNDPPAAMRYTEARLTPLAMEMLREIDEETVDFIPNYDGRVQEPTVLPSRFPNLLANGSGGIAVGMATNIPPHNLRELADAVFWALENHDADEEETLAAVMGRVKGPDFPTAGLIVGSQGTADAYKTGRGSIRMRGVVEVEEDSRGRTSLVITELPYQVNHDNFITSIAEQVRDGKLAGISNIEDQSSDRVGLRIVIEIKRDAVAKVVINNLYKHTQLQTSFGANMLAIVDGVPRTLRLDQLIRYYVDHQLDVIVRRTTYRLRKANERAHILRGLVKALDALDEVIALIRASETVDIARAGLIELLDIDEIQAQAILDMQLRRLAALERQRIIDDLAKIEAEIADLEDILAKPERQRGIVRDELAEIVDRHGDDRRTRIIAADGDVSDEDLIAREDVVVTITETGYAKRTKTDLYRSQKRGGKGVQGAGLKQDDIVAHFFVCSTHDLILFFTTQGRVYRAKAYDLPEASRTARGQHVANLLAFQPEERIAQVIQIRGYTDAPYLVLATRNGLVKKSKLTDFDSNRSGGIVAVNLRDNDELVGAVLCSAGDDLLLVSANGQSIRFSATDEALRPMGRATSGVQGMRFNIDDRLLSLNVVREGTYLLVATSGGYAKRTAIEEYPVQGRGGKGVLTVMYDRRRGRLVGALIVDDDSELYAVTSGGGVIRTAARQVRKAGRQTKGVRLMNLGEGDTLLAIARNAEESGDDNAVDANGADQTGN
# Sequence of Mycobacterium tuberculosis DNA gyrase holoenzyme GyrB2A2 (Mycobacterium tuberculosis) (P9WG45 whole entry, chain 2 of 2, further chain): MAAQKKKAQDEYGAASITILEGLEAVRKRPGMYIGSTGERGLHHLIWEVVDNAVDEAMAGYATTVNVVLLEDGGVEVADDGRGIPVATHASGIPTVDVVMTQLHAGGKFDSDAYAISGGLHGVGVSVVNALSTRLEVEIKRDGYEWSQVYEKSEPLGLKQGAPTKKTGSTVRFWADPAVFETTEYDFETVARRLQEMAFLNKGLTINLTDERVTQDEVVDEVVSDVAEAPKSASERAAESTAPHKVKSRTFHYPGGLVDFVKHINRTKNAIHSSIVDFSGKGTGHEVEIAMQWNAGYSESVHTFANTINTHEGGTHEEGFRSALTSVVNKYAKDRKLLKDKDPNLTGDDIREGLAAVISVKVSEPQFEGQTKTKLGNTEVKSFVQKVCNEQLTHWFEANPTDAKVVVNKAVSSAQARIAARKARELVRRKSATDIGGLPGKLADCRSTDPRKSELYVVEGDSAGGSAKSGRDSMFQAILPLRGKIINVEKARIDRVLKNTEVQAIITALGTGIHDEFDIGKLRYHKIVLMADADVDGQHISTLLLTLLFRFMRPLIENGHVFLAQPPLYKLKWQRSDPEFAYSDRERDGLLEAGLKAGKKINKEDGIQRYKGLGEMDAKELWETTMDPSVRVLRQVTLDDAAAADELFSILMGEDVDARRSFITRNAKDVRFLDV
binder,measurement,setting,value
ParE2 toxin of Mycobacterium tuberculosis H37Rv (natural protein) MTRRLRVHNGVEDDLFEAFSYYADAAPDQIDRLYNLFVDAVTKRIPQAPNAFAPLFKHYRHIYLRPFRYYVAYRTTDEAIDILAVRHGMENPNAVEAEISGRTFE,linearisation of supercoiled pSG483 in the M. tuberculosis gyrase DNA relaxation (cleavage) assay; ParE2 titrated against constant GyrB2A2 (31.25 nM); value at the highest concentration tested (% of substrate pSG483 linearised),[1],50
"ParD1 antitoxin of Mycobacterium tuberculosis H37Rv (natural protein, Antitoxin ParD1, gene parD1 (rv1960c), M. tuberculosis H37Rv; printed mass 9.21 kDa; residues are numbered up to R83; also called primary ParD1; auxiliary ParD1) MGKNTSFVLDEHYSAFIDGEIAAGRYRSASEVIRSALRLLEDRETQLRALREALEAGERSGSSTPFDFDGFLGRKRADASRGR",stoichiometry N,[2],2 ParD1 per ParE1 (4:2 heterohexamer)
same,stoichiometry N,[3],4
same,stoichiometry N,[4],1 ParD1 per ParE1 (2:2 heterotetramer)

# From PMC10899793, “Toxin release by conditional remodelling of ParDE1 from Mycobacterium tuberculosis leads to gyrase inhibition” (Nucleic Acids Research, 2023)
